The target of assay [1] is T1, Myc-UEV^VPS37A (UEV domain of VPS37A only) (UniProt Q8NEZ2 23-217, [35S]-methionine radiolabel).
T1 construct: domain: UEV; the legend is followed; The limits 23-217 are stated for the AlphaFold input, not expressly for the clone; also called Myc-UEV^VP37A; not shown: Myc tag
T1 sequence (looked up): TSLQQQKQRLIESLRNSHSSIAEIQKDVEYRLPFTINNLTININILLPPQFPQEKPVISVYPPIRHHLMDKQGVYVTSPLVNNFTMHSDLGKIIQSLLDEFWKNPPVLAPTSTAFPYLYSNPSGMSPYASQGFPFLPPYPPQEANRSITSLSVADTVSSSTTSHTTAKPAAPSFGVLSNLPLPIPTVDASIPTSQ
Put plainly: GST pulldown of in vitro translated Myc-tagged protein (FIG. 7C). From the text:
(§1) 7A, Co-IP analysis of interactions between FLAG-VPS37A and GFP-LC3A and GFP-GABARAP (GABA) in HEK293T cells. 5% of input was loaded. 7B, Schematic of VPS37A full length and deletion constructs: (i) VPS37A^FL, full length, (ii) VPS37A^deltaUEV deletion of UEV (cyan), (iii) UEV^VPS37A, UEV domain only (cyan), (iv) VPS37A^{deltaN(1-90)} deletion of residues 1-90, (v) VPS37A^{deltaN(1-20)}, deletion of residues 1-20 (red), (vi) VPS37A^{Nter-EGFP}, N-ter 1-22 chimera with GFP. 7C, GST-Pull down of Myc-UEV^VP37A and Myc-VPS37AdeltaCEV with GST or GST-LC3A, GST-LC3C and GST-GABARAP, 2% of Input was loaded. 7D, Co-IP between GFP-LC3A with FLAG-VPS37A^FL, UEV^VPS37A and VPS37A^deltaCEV. 7E, VPS37AdeltaCEV AlphaFold predicted structure; sequence, 1-22 residues, N-terminus of VPS37A (red, residues predicted to contact mATG8s. 7F, Representation of AlphaFold predicted complexes (rank 1; VPS37A^deltaCEV and GABARAP). 7G,7H Co-IP analyses in HEK293T cells expressing FLAG-VPS37A and GFP-LC3A (in 7H) or GFP-GABARAP (in 7G).
GST pull-down Assay. Recombinant GST and GST-fusion proteins were produced in Escherichia coli SoluBL21 (Genlantis, #C700200) by inducing expression in overnight cultures with 50-75 μg/mL isopropyl β-D-1-thiogalactopyranoside (IPTG). Expressed proteins were purified by immobilization on Glutathione Sepharose 4 Fast Flow beads (GE Healthcare, #17-5132-01). […]

Assay [2] has as its target T2, FLAG-VPS37A (full length) (UniProt Q8NEZ2 1-397).
T2 construct: Expressed in HEK293T cells for Co-IP; also called FLAG-VPS37A^FL; pDest-FLAG-VPS37A^Full; not shown: FLAG tag
T2 sequence (looked up): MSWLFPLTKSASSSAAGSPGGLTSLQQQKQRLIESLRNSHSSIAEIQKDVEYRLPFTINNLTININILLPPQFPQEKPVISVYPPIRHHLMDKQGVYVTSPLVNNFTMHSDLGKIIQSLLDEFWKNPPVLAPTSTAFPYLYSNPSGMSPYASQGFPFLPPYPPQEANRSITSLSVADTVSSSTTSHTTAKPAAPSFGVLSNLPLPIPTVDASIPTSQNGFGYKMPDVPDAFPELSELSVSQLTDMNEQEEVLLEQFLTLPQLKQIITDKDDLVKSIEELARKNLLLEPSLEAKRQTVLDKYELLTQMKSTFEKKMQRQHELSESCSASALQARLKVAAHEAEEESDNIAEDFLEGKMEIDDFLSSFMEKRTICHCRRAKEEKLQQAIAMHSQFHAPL
As to the kind of experiment: Co-IP of FLAG-VPS37A and GFP-GABARAP in HEK293T cells (FIG. 7A).
From the text: as §1
Immunoblotting and co-immunoprecipitation assays. Immunoblotting and co-immunoprecipitation (Co-IP) were performed as described previously⁴. For Co-IP, 10 cm dish cells were transfected with 12 μg of plasmids, wherever stated, and lysed in NP-40 buffer containing protease inhibitor cocktail (Roche, cat #11697498001) and PMSF (Sigma, cat #93482). […]

In another assay the target is GST-LC3B (UniProt Q9GZQ8 1-125). As to the kind of experiment: GST pulldown of in vitro translated [35S] Myc-VPS37A. From the text: Myc-VPS37A with GST or GST tagged LC3A, LC3B, LC3C, GABARAP, GABARAP-L1 and GABARAP-L2. 2% of input was loaded. 1B, AlphaFold predicted complexes between VPS37^{AdeltaCEV} and GABARAP. 1C, Schematic representation of HaloTag (HT)-LC3B MIL/MPL assay adapted for quantitative high content microscopy (HCM). MIL⁺ profiles, HT-LC3B accessible to membrane impermeant ligand; MPL⁺ profiles, HT-LC3B remaining available (not saturated with MIL) to membrane permeant ligand. 1D, MIL/MPL assay in HeLa^WT and HeLa^HexaKO expressing HT-LC3B, starved in EBSS for 90 min±100 nM BafA1. Cells were sequentially incubated with HT ligands MIL and MPL, and HCM quantification carried out; (d-i) MIL-accessible membrane-bound HT-LC3B; (d-ii) MPL-accessible membrane-bound HT-LC3B (remaining available to MPL after MIL saturation). (d-iii) MIL/MPL puncta ratio. […]

B1: GST-GABARAP (other, UniProt O95166 1-117, looked up)
chain: MKFVYKEEHPFEKRRSEGEKIRKKYPDRVPVIVEKAPKARIGDLDKKKYLVPSDLTVGQFYFLIRKRIHLRAEDALFFFVNNVIPPTSATMGQLYQEHHEEDFFLYIAYSDESVYGL
notes: Recombinant, made in E. coli, held on glutathione Sepharose beads; not shown: GST tag
For B1, in assay [1], the binding result is “no binding”.

B2: GST-LC3C (other, UniProt Q9BXW4 1-147, looked up)
chain: MPPPQKIPSVRPFKQRKSLAIRQEEVAGIRAKFPNKIPVVVERYPRETFLPPLDKTKFLVPQELTMTQFLSIIRSRMVLRATEAFYLLVNNKSLVSMSATMAEIYRDYKDEDGFVYMTYASQETFGCLESAAPRDGSSLEDRPCNPL
notes: Recombinant, made in E. coli, held on glutathione Sepharose beads; also called GTS-LC3C; not shown: GST tag
B2: the binding result in assay [1] is “no binding”.

B3: GFP-GABARAP (other, UniProt O95166 1-116, looked up)
chain: MKFVYKEEHPFEKRRSEGEKIRKKYPDRVPVIVEKAPKARIGDLDKKKYLVPSDLTVGQFYFLIRKRIHLRAEDALFFFVNNVIPPTSATMGQLYQEHHEEDFFLYIAYSDESVYG
notes: Expressed in HEK293T cells for Co-IP; also called GFP-GABARAP (GABA); pDest-GFP-GABARAP; not shown: GFP
Turning to B3, in assay [2], the binding result is recorded as “binds”.

B4: Myc-VPS37A (in vitro translated, [35S]-radiolabeled, full length) (other)
chain: T2 sequence (looked up)
modifications: [35S]-methionine radiolabel
notes: In vitro translated in reticulocyte lysate; also called VPS37A^FL; not shown: Myc tag
Regarding B4, in the assay with GST-LC3B, the binding result is listed as “no binding”.

Source of the values: patent US20250043285A1 (UNM RAINFOREST INNOVATIONS, published 2025).
